This test deals with Kv4.2-YFP (mouse) (UniProt Q9Z0V2). The test can be described thus: FRET or BRET.
Sequence of UniProt Q9Z0V2 (Q9Z0V2 whole entry): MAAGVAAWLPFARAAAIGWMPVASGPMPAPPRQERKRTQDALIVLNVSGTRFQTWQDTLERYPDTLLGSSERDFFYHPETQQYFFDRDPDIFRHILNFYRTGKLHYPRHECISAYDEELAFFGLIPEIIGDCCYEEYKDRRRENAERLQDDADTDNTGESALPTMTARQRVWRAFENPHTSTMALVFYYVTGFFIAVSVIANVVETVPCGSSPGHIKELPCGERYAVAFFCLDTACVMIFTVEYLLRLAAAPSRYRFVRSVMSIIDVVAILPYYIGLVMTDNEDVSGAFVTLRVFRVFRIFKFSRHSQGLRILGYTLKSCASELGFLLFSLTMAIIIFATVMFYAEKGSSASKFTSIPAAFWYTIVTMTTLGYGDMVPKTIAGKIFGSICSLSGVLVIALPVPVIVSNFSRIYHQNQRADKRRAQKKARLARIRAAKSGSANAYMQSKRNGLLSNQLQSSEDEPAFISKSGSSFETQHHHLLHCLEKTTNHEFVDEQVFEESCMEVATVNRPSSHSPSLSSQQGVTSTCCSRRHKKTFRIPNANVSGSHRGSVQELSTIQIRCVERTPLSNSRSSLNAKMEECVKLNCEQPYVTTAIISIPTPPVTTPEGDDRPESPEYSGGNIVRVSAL

“KChIP3a-CFP (text) / KChIP2c-CFP (legend, methods) (from UniProt Q9JM59-3 1-220) (natural protein)” showed an FRET efficiency of 11.2% and a stoichiometry N of 1.

For orientation: stoichiometry N means the number of molecules, sites or subunits per partner or assembly.

The values above are taken from PMC10496648.
